# Assay: soluble on expression in E. coli; label from the status in PepcDB or PDB records
row,Sequence,soluble on expression in E. coli
1,MGSDKIHHHHHHMWKHVKQVDPEIYEVLVNELKRQEYGLELIASENFASLAVIETMGSMLTNKYAEGYPKKRYYGGCEWVDRAEERAIERAKRLFGAKFANVQPHSGSQANMAVYLALAQPGDTIMGMSLSHGGHLTHGAPVNFSGKIFKVVPYGVNLETETIDYDEVRRLALEHKPKIIVAGGSAYARIIDFKRFREIADEVGAYLMVDMAHFAGLVAAGIHPNPLEYAHVVTSTTHKTLRGPRGGLILTNDPEIAKAVDKTIFPGIQGGPLMHVIAAKAVCFKEAMTEEFKEYQKQVVKNAKKMAEEFQKRGYRIVSGGTDTHLFLVDLTPKDITGKAAEKALESCGITVNKNTIPNEKRSPFVASGIRIGTPAVTTRGMKEEEMEEIAEMIDLVLSNVIDENGTVKPEVREEVSKKVRELCERFPLYRDKIEGVEI,not soluble
2,MGSDKIHHHHHHMDRIGIDTWANISAEGWSSLLLGNGASIAIHKEFAYPTLHGIADAKGLLATTAPIFAKLGTTDFEHVLLACWYAEHVNGALGTPSAAISAAYEEVRTALIEAVHSVHPVHADVAADLQRVGAFASAFPTVVSLNYDITLYWAMLLFNAANGSWFKDAFHDGEFQTDWEYLRRPYGHAAGATLVFYPHGSLAVARDYLGDETKLSVGAGAAGDLLGTITRRWASGHYVPVFVSEGTSHQKVAAIRRSHYLTNVYEEVLPALGESLVVYGWSFDERDQHVLAAIAANPPKRMAVSVFTGQPDGDQQAFCLQVLKAVGRSLPGTEVTFFDSRSPGCWNNP,not soluble
3,MCESKIDRNRIWIVGTNATYPPFEYVDAQGEVVGFDIDLAKAISEKLGKQLEVREFAFDALILNLKKHRIDAILAGMSITPSRQKEIALLPYYGDEVQELMVVSKRSLETPVLPLTQHSSVAVQTGTFQEHYLLSQPGICVRSFDSTLEVIMEVRYGKSPVAVLEPSVGRVVLKDFPNLVATRLELPPECWVLGCGLGVAKDRPEEIQTIQQAITDLKSEGVIQSLTKKWQLSEVAYELEHHHHHH,soluble
4,MGSDKIHHHHHHMKVSADIGALVERRKQGYSLEAPFYQSEEIFALDMEAIFRKHWIQVAVEPDVPEPGDYITVELGHDSILVVRDDDMQVRAFHNVCRHRGARLCNEDKGTVGNIVCPYHSWTYNLTGDLMFAEHMGEKFDRCKHSLKSVHVQNLAGLIFVCLADEPPADFAAMRAAMEPYLLPHDLPNTKIAAQVDIIEEGNWKLTMENNRECYHCVANHPELTISLYEYGFGYQQSPANAEGMEAFEKTCIARAAQWEALNLPSAEIERLLERTGFRTQRLPLDRSGESQTLDAKVASKKLLGKFEQADLGGLSFWTQPNSWHHFMSDHIVTFSVIPLSAGKTLVRTKWLVHKDAQEGVDYDVANLTAVWNATNDQDRVLVEYSQRGSASSAYEPGPYSPFTEGLVEKFSAWYIRRLAEHVGA,not soluble
5,MKQIESAKNQKVKDWKKLHTKKERTKTNTFLIEGEHLVEEALKSPGIVKEILVKDETRIPSDLETGIQCYMLSEDAFSAVTETETPQQIAAVCHMPEEKLATARKVLLIDAVQDPGNLGTMIRTADAAGLDAVVLGDGTADAFNGKTLRSAQGSHFHIPVVRRNLPSYVDELKAEGVKVYGTALQNGAPYQEIPQSESFALIVGNEGAGVDAALLEKTDLNLYVPLYGQAESLNVAVAAAILVYHLRG,soluble
6,MRILILGMGGTIASVKGERGYESALSVSKILKLAGISSEAKIEARDLMNVDSTLIQPSDWERLAKEIEKEVWEYDGIVITHGTDTMAYSASMLSFMLRNPPIPIVLTGSMLPITEKNSDAPFNLRTALEFVKLGIRGIYIAFNGKVMLGVRASKIRSMGFDAFESINYPNVAEIKDDKLRILHIPDFYGDEFFSDIKYEPKVLVIKLIPGLSGDIVREALRLGYKGIILEGYGVGGIPYRGTDLFEVVSSISKRIPVVLTTQAIYDGVDLQRYKVGRIALEAGVIPAGDMTKEATITKLMWILGHTKNIEEVKQLMGKNITGELTRVS,soluble
7,TAVEPLALIRADGPTLPARGMHKPALCIIAQGRKEVQLAEERYIYDPLHYLVVSVTLPLAGQVIDASPDAPYLCVRLDIDPAEITQLISDAGPMEVASRRGDRGLYVDRIDASLLDAVLRLIHLLDSPRDIPMLAPLILREIFYRLLRSGQGQRL,not soluble
8,MAFTEHSPLTPHRRDLCSRSIWLARKIRSDLTALTESYVKHQGLNKNINLDSADGMPVASTDQWSELTEAERLQENLQAYRTFHVLLARLLEDQQVHFTPTEGDFHQAIHTLLLQVAAFAYQIEELMILLEYKIPRNEADGMPINVGDGGLFEKKLWGLKVLQELSQWTVRSIHDLRFISSHQTGIP,soluble
9,MSLDSWSRNFELLINSRTPLIWIRTKEEERLYKVIDKSCKKLNIKRFVSWDCVNGIKGVLNENGKFSNNPMGVLNWIKAQTSEIPTILLVRDFHKFYDDPSISRTIKELSSSLRETNNNLILSSHILPSSEELDDLITILNLPLPDLSELTALIKKIAFNTDSDLSEQDLNELAIASSGLSEIKVKQVTAKALAQRGKISKFDIKDMLEEKKQVIARSEGHHHHHH,soluble
10,MKRILNYPGSKWGLADLIIENMPEHKSYLEPFCGSCAVFMNKQKATLETINDLDGRLVNLFKTMRDNPEELQYLIMHTLYSREEYMLSHEISSDSLEDARRMAVRLWFAVGGKTNANVGFRKNVSWNGPYNAYEWNDMYNRIGIAAARLKDAQIENVDAIKLIEQHNDKDTLIYCDPPYVATSLASSHYQHDFSLEQHKELLKVLKKHEGKVMLSGYESELYKQELSDWPALKTMTKVGITSEKKSDRQEIIWCNFEPPMQLNLFKEEQA,not soluble
11,GPGSMMSSATLSDVETLENIPRGAPIGGSGIVSGTASEGSSRGAERSTVANVSEDGERGRREEEEDRKPLIMDQSVIMDEEPYISPAKAKKISWKCGLCGYYVLAMDHNGNPLELTNSPSGEPLPMSCPRCMLLHHDWEPAVPFDDFNNHANIRSKQSNSYVISDQKSGKQAGFVPARTPAERDLKKTSADITRILQEVEDRWRNYAPRESPTSREQGPKGRLMAYYCDKCNRELLRMDQYGELVPMVSDKEGKPLPIVCPGCKEEHSEWVVRPFTVTR,soluble
12,HMAMASKEMFEDTVEERVINEEYKIWKKNTPFLYDLVMTHALQWPSLTVQWLPEVTKPEGKDYALHWLVLGTHTSDEQNHLVVARVHIPNDDAQFDASHCDSDKGEFGGFGSVTGKIECEIKINHEGEVNRARYMPQNPHIIATKTPSSDVLVFDYTKHPAKPDPSGECNPDLRLRGHQKEGYGLSWNSNLSGHLLSASDDHTVCLWDINAGPKEGKIVDAKAIFTGHSAVVEDVAWHLLHESLFGSVADDQKLMIWDTRSNTTSKPSHLVDAHTAEVNCLSFNPYSEFILATGSADKTVALWDLRNLKLKLHTFESHKDEIFQVHWSPHNETILASSGTDRRLNVWDLSKIGEEQSAEDAEDGPPELLFIHGGHTAKISDFSWNPNEPWVICSVSEDNIMQIWQMAENIYNDE,soluble
13,MSLYLFGESDHYLWLPRGLLYPLQDKFKQVSVEDRRKVQRSISVEFKGELTFEQELALSDMTSKENGLLHAETGFGKTVLGAALISERKTKTIILVHNKQLLDQWLDRLNCFLTFEEEEAIRYTASGREKVIGYVGQYGGTKKWLSKLVDVVMIQSLFKLENSQSLLDEYEMMIVDECHHVSALMFEKVVAQFRGKYLYGLTATPERKNGHEPIVFQRIGEILHTADKREGHHHHHH,not soluble
14,SNAMAKITVGTENQAPIEIYYEDHGTGKPVVLIHGWPLSGRSWEYQVPALVEAGYRVITYDRRGFGKSSQPWEGYEYDTFTSDLHQLLEQLELQNVTLVGFSMGGGEVARYISTYGTDRIEKVVFAGAVPPYLYKSEDHPEGALDDATIETFKSGVINDRLAFLDEFTKGFFAAGDRTDLVSESFRLYNWDIAAGASPKGTLDCITAFSKTDFRKDLEKFNIPTLIIHGDSDATVPFEYSGKLTHEAIPNSKVALIKGGPHGLNATHAKEFNEALLLFLKD,soluble
15,MSDSDIPSSTLYKDNVDWKDITPIYPSKEEEVAVKIAVTEDFTDAFAYFRAILIKNEKSDRVMALLEDCIRLNPANYTVWQYRRVCLTELGWDLKKEMRYLSDIIQESPKNYQVWHHRRFIVETIGESAVNDELHFCSEVIRDENKNYHAWQHRQWVVRTFKVPLEKELTFALHMLLLDNRNNSAYNYRYFLMTLYDKTEDASQLDIEINLAKKFIENIPNNESAWNYLAGLLITNGVTSNSDVVSFVEDLYETTPEEKRSPFLLAFIADMMLENIENQKSAEESAGRAKKLYKDLQSIDPVRVNYYRHQSLLAQTMLIKAQTKVTAK,not soluble

# Source: the DeepSol protein solubility set
